B1: CANX (protein, UniProt P27824 21-592, looked up)
Calnexin: HDGHDDDVIDIEDDLDDVIEEVEDSKPDTTAPPSSPKVTYKAPVPTGEVYFADSFDRGTLSGWILSKAKKDDTDDEIAKYDGKWEVEEMKESKLPGDKGLVLMSRAKHHAISAKLNKPFLFDTKPLIVQYEVNFQNGIECGGAYVKLLSKTPELNLDQFHDKTPYTIMFGPDKCGEDYKLHFIFRHKNPKTGIYEEKHAKRPDADLKTYFTDKKTHLYTLILNPDNSFEILVDQSVVNSGNLLNDMTPPVNPSREIEDPEDRKPEDWDERPKIPDPEAVKPDDWDEDAPAKIPDEEATKPEGWLDDEPEYVPDPDAEKPEDWDEDMDGEWEAPQIANPRCESAPGCGVWQRPVIDNPNYKGKWKPPMIDNPSYQGIWKPRKIPNPDFFEDLEPFRMTPFSAIGLELWSMTSDIFFDNFIICADRRIVDDWANDGWGLKKAADGAAEPGVVGQMIEAAEERPWLWVVYILTVALPVFLVILFCCSGKKQTSGMEYKKTDAPQPDVKEEEEEKEEEKDKGDEEEEGEEKLEEKQKSDAEEDGGTVSQEEEDRKPKAEEDEILNRSPRNRKPRRE
B2: ILF3 (protein, UniProt Q12906 1-894, looked up)
Interleukin enhancer-binding …: MRPMRIFVNDDRHVMAKHSSVYPTQEELEAVQNMVSHTERALKAVSDWIDEQEKGSSEQAESDNMDVPPEDDSKEGAGEQKTEHMTRTLRGVMRVGLVAKGLLLKGDLDLELVLLCKEKPTTALLDKVADNLAIQLAAVTEDKYEILQSVDDAAIVIKNTKEPPLSLTIHLTSPVVREEMEKVLAGETLSVNDPPDVLDRQKCLAALASLRHAKWFQARANGLKSCVIVIRVLRDLCTRVPTWGPLRGWPLELLCEKSIGTANRPMGAGEALRRVLECLASGIVMPDGSGIYDPCEKEATDAIGHLDRQQREDITQSAQHALRLAAFGQLHKVLGMDPLPSKMPKKPKNENPVDYTVQIPPSTTYAITPMKRPMEEDGEEKSPSKKKKKIQKKEEKAEPPQAMNALMRLNQLKPGLQYKLVSQTGPVHAPIFTMSVEVDGNSFEASGPSKKTAKLHVAVKVLQDMGLPTGAEGRDSSKGEDSAEETEAKPAVVAPAPVVEAVSTPSAAFPSDATAEQGPILTKHGKNPVMELNEKRRGLKYELISETGGSHDKRFVMEVEVDGQKFQGAGSNKKVAKAYAALAALEKLFPDTPLALDANKKKRAPVPVRGGPKFAAKPHNPGFGMGGPMHNEVPPPPNLRGRGRGGSIRGRGRGRGFGGANHGGYMNAGAGYGSYGYGGNSATAGYSQFYSNGGHSGNASGGGGGGGGGSSGYGSYYQGDNYNSPVPPKHAGKKQPHGGQQKPSYGSGYQSHQGQQQSYNQSPYSNYGPPQGKQKGYNHGQGSYSYSNSYNSPGGGGGSDYNYESKFNYSGSGGRSGGNSYGSGGASYNPGSHGGYGGGSGGGSSYQGKQGGYSQSNYNSPGSGQNYSGPPSSYQSSQGGYGRNADHSMNYQYR
B3: TFCP2 (protein, UniProt Q12800 1-502, looked up)
Alpha-globin transcription …: MAWALKLPLADEVIESGLVQDFDASLSGIGQELGAGAYSMSDVLALPIFKQEESSLPPDNENKILPFQYVLCAATSPAVKLHDETLTYLNQGQSYEIRMLDNRKLGELPEINGKLVKSIFRVVFHDRRLQYTEHQQLEGWRWNRPGDRILDIDIPMSVGIIDPRANPTQLNTVEFLWDPAKRTSVFIQVHCISTEFTMRKHGGEKGVPFRVQIDTFKENENGEYTEHLHSASCQIKVFKPKGADRKQKTDREKMEKRTPHEKEKYQPSYETTILTECSPWPEITYVNNSPSPGFNSSHSSFSLGEGNGSPNHQPEPPPPVTDNLLPTTTPQEAQQWLHRNRFSTFTRLFTNFSGADLLKLTRDDVIQICGPADGIRLFNALKGRMVRPRLTIYVCQESLQLREQQQQQQQQQQKHEDGDSNGTFFVYHAIYLEELTAVELTEKIAQLFSISPCQISQIYKQGPTGIHVLISDEMIQNFQEEACFILDTMKAETNDSYHIILK
B4: GEMIN8 (protein, UniProt Q9NWZ8 1-242, looked up)
Gem-associated protein 8: MAAVKASTSKATRPWYSHPVYARYWQHYHQAMAWMQSHHNAYRKAVESCFNLPWYLPSALLPQSSYDNEAAYPQSFYDHHVAWQDYPCSSSHFRRSGQHPRYSSRIQASTKEDQALSKEEEMETESDAEVECDLSNMEITEELRQYFAETERHREERRRQQQLDAERLDSYVNADHDLYCNTRRSVEAPTERPGERRQAEMKRLYGDSAAKIQAMEAAVQLSFDKHCDRKQPKYWPVIPLKF
B5: NAT10 (protein, UniProt Q9H0A0 1-1025, looked up)
RNA cytidine acetyltransferase: MHRKKVDNRIRILIENGVAERQRSLFVVVGDRGKDQVVILHHMLSKATVKARPSVLWCYKKELGFSSHRKKRMRQLQKKIKNGTLNIKQDDPFELFIAATNIRYCYYNETHKILGNTFGMCVLQDFEALTPNLLARTVETVEGGGLVVILLRTMNSLKQLYTVTMDVHSRYRTEAHQDVVGRFNERFILSLASCKKCLVIDDQLNILPISSHVATMEALPPQTPDESLGPSDLELRELKESLQDTQPVGVLVDCCKTLDQAKAVLKFIEGISEKTLRSTVALTAARGRGKSAALGLAIAGAVAFGYSNIFVTSPSPDNLHTLFEFVFKGFDALQYQEHLDYEIIQSLNPEFNKAVIRVNVFREHRQTIQYIHPADAVKLGQAELVVIDEAAAIPLPLVKSLLGPYLVFMASTINGYEGTGRSLSLKLIQQLRQQSAQSQVSTTAENKTTTTARLASARTLYEVSLQESIRYAPGDAVEKWLNDLLCLDCLNITRIVSGCPLPEACELYYVNRDTLFCYHKASEVFLQRLMALYVASHYKNSPNDLQMLSDAPAHHLFCLLPPVPPTQNALPEVLAVIQVCLEGEISRQSILNSLSRGKKASGDLIPWTVSEQFQDPDFGGLSGGRVVRIAVHPDYQGMGYGSRALQLLQMYYEGRFPCLEEKVLETPQEIHTVSSEAVSLLEEVITPRKDLPPLLLKLNERPAERLDYLGVSYGLTPRLLKFWKRAGFVPVYLRQTPNDLTGEHSCIMLKTLTDEDEADQGGWLAAFWKDFRRRFLALLSYQFSTFSPSLALNIIQNRNMGKPAQPALSREELEALFLPYDLKRLEMYSRNMVDYHLIMDMIPAISRIYFLNQLGDLALSAAQSALLLGIGLQHKSVDQLEKEIELPSGQLMGLFNRIIRKVVKLFNEVQEKAIEEQMVAAKDVVMEPTMKTLSDDLDEAAKEFQEKHKKEVGKLKSMDLSEYIIRGDDEEWNEVLNKAGPNASIISLKSDKKRKLEAKQEPKQSKKLKNRETKNKKDMKLKRKK
B6: WDR36 (protein, UniProt Q8NI36 1-895, looked up)
WD repeat-containing protein …: MERASERRTASALFAGFRALGLFSNDIPHVVRFSALKRRFYVTTCVGKSFHTYDVQKLSLVAVSNSVPQDICCMAADGRLVFAAYGNVFSAFARNKEIVHTFKGHKAEIHFLQPFGDHIISVDTDGILIIWHIYSEEEYLQLTFDKSVFKISAILHPSTYLNKILLGSEQGSLQLWNVKSNKLLYTFPGWKVGVTALQQAPAVDVVAIGLMSGQVIIHNIKFNETLMKFRQDWGPITSISFRTDGHPVMAAGSPCGHIGLWDLEDKKLINQMRNAHSTAIAGLTFLHREPLLVTNGADNALRIWIFDGPTGEGRLLRFRMGHSAPLTNIRYYGQNGQQILSASQDGTLQSFSTVHEKFNKSLGHGLINKKRVKRKGLQNTMSVRLPPITKFAAEEARESDWDGIIACHQGKLSCSTWNYQKSTIGAYFLKPKELKKDDITATAVDITSCGNFAVIGLSSGTVDVYNMQSGIHRGSFGKDQAHKGSVRGVAVDGLNQLTVTTGSEGLLKFWNFKNKILIHSVSLSSSPNIMLLHRDSGILGLALDDFSISVLDIETRKIVREFSGHQGQINDMAFSPDGRWLISAAMDCSIRTWDLPSGCLIDCFLLDSAPLNVSMSPTGDFLATSHVDHLGIYLWSNISLYSVVSLRPLPADYVPSIVMLPGTCQTQDVEVSEETVEPSDELIEYDSPEQLNEQLVTLSLLPESRWKNLLNLDVIKKKNKPKEPPKVPKSAPFFIPTIPGLVPRYAAPEQNNDPQQSKVVNLGVLAQKSDFCLKLEEGLVNNKYDTALNLLKESGPSGIETELRSLSPDCGGSIEVMQSFLKMIGMMLDRKRDFELAQAYLALFLKLHLKMLPSEPVLLEEITNLSSQVEENWTHLQSLFNQSMCILNYLKSALL
B7: FAM120A (protein, UniProt Q9NZB2 1-1118, looked up)
Constitutive coactivator of …: MGVQGFQDYIEKHCPSAVVPVELQKLARGSLVGGGRQRPPQTPLRLLVDADNCLHRLYGGFYTDWVSGGQWNHMLGYLAALAKACFGGNIELFVFFNGALEKARLHEWVKRQGNERQTAQQIVSHVQNKGTPPPKVWFLPPVCMAHCIRLALIRFHVKVAQSIEDHHQEVIGFCRENGFHGLVAYDSDYALCNIPYYFSAHALKLSRNGKSLTTSQYLMHEVAKQLDLNPNRFPIFAALLGNHILPDEDLASFHWSLLGPEHPLASLKVRAHQLVLPPCDVVIKAVADYVRNIQDTSDLDAIAKDVFQHSQSRTDDKVIRFKRAIGYYSATSKPMSFHPPHYLAARPGPFGMPGMVPPHVPPQMLNIPQTSLQAKPVAPQVPSPGGAPGQGPYPYSLSEPAPLTLDTSGKNLTEQNSYSNIPHEGKHTPLYERSSPINPAQSGSPNHVDSAYFPGSSTSSSSDNDEGSGGATNHISGNKIGWEKTGSHSEPQARGDPGDQTKAEGSSTASSGSQLAEGKGSQMGTVQPIPCLLSMPTRNHMDITTPPLPPVAPEVLRVAEHRHKKGLMYPYIFHVLTKGEIKIAVSIEDEANKDLPPAALLYRPVRQYVYGVLFSLAESRKKTERLAFRKNRLPPEFSPVIIKEWAAYKGKSPQTPELVEALAFREWTCPNLKRLWLGKAVEDKNRRMRAFLACMRSDTPAMLNPANVPTHLMVLCCVLRYMVQWPGARILRRQELDAFLAQALSPKLYEPDQLQELKIENLDPRGIQLSALFMSGVDMALFANDACGQPIPWEHCCPWMYFDGKLFQSKLLKASREKTPLIDLCDGQADQAAKVEKMRQSVLEGLSFSRQSHTLPFPPPPALPFYPASAYPRHFGPVPPSQGRGRGFAGVCGFGGPYGETVATGPYRAFRVAAASGHCGAFSGSDSSRTSKSQGGVQPIPSQGGKLEIAGTVVGHWAGSRRGRGGRGPFPLQVVSVGGPARGRPRGVISTPVIRTFGRGGRYYGRGYKNQAAIQGRPPYAASAEEVAKELKSKSGESKSSAMSSDGSLAENGVMAEEKPAPQMNGSTGDARAPSHSESALNNDSKTCNTNPHLNALSTDSACRREAALEAAVLNKEE

Each molecule was assayed on GFP-14-3-3β and its binding proteins (assay: GFP-14-3-3β co-IP with LC-MS/MS label-free quantification, untreated versus PP1c-treated). Settings: GFP-14-3-3β co-IP LC-MS/MS; PP1 vs untreated; student's t-test; label-free quantification, 3 replicates each.
Set-up: species or system human

| Molecule | Difference (log2), PP1 vs untreated |
| --- | --- |
| B1 | -0.251 log2 |
| B2 | -0.2231 log2 |
| B3 | -0.2131 log2 |
| B4 | -0.2137 log2 |
| B5 | -0.2324 log2 |
| B6 | -0.2458 log2 |

Same assay, conditions: log2 difference; pairwise comparison PP1 vs untreated, label-free quantification, 3 replicates each

| Molecule | Difference (log2), PP1 vs untreated |
| --- | --- |
| B7 | 1.725 |

What follows are molecules tested on GFP-14-3-3β (assay: GFP-14-3-3β co-IP with LC-MS/MS, untreated GFP-14-3-3β versus GFP control (14-3-3 interactome)). Settings: GFP-14-3-3β co-IP LC-MS/MS; untreated vs GFP; student's t-test; label-free quantification, 3 replicates each.
Format: binding, human

| Molecule | Difference (log2), untreated vs GFP |
| --- | --- |
| B1 | 0.347 log2 |
| B2 | 3.029 log2 |
| B3 | 0.6477 log2 |
| B4 | 0.1049 log2 |
| B5 | 2.262 log2 |
| B6 | 1.174 log2 |

Same assay, conditions: log2 difference; pairwise comparison untreated vs GFP, label-free quantification, 3 replicates each

| Molecule | Difference (log2), untreated vs GFP |
| --- | --- |
| B7 | -0.07006 |
